Consider three molecules from publication PMC4269414, “Stubborn Contaminants: Influence of Detergents on the Purity of the Multidrug ABC Transporter BmrA” (PLoS ONE, 2014).

As a reminder, the stoichiometry N is a count of units in the complex or per binding partner.

Changes are numbered by the printed parent chain. In names and notes the source's numbering stands.

Series [1] addresses T1, E504Q BmrA mutant, full-length, His6-tagged (uncleaved) (Bacillus subtilis, UniProt O06967 1-589, E504Q).
T1 construct: BmrA, Bacillus subtilis, E504Q mutant; the part of the sample left uncut after a short trypsin digestion with 2 mM ATP and MgCl2; also called tagged, uncleaved monomer; source: E. coli membranes, solubilised with DDM, purified (Ni2+ high trap chelating column, PD-10 desalting); not shown: His6, N-terminal, kept
T1 sequence (looked up): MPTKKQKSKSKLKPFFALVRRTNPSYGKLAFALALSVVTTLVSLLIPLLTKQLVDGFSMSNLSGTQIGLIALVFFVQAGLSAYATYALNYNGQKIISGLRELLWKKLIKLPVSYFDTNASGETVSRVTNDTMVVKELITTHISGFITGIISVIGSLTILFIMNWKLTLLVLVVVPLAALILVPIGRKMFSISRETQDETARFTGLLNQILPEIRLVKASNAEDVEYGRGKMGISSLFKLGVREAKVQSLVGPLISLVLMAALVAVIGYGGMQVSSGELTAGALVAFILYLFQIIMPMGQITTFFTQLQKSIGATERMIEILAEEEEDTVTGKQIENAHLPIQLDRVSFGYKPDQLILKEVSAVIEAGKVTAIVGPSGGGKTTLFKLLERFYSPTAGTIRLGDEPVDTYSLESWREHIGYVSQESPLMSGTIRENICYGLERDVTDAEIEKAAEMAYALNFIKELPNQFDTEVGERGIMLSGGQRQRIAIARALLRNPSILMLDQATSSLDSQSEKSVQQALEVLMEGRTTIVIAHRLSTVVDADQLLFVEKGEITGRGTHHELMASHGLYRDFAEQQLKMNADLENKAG
Briefly: pull-down; second Ni2+ High Trap chelating column in DDM after partial trypsin cleavage of the N-terminal His6 tag; flow-through against the peak eluted with 250 mM imidazole, fractions on SDS-PAGE. Particulars: both partners purified.

Series [2] concerns the molecule itself. Kind of series: SEC; HiLoad 16/60 Superdex 200 PG, 25 mM Tris-HCl pH 8.0, 150 mM NaCl with detergent (DDM, UDM, UTM, LMNG, LDAO or FC12), 4°C; elution volume compared with that expected for dimers in detergent micelles. A general note: In gel filtration, larger molecules generally elute earlier.
Series [3] concerns the molecule itself. Briefly: crystal structure; OmpF crystallised from the FC12-purified BmrA sample with 5 mM ADP; PEG 1500, 2-methyl-2,4-pentanediol, 0.1 M Tris-HCl pH 8.0, 19°C; space group C2; molecular replacement with an OmpF trimer.

B1: E504Q BmrA mutant, untagged, cleaved by trypsin (starts at Leu12) (domain or fragment, Bacillus subtilis, UniProt O06967 12-589, looked up)
chain: LKPFFALVRRTNPSYGKLAFALALSVVTTLVSLLIPLLTKQLVDGFSMSNLSGTQIGLIALVFFVQAGLSAYATYALNYNGQKIISGLRELLWKKLIKLPVSYFDTNASGETVSRVTNDTMVVKELITTHISGFITGIISVIGSLTILFIMNWKLTLLVLVVVPLAALILVPIGRKMFSISRETQDETARFTGLLNQILPEIRLVKASNAEDVEYGRGKMGISSLFKLGVREAKVQSLVGPLISLVLMAALVAVIGYGGMQVSSGELTAGALVAFILYLFQIIMPMGQITTFFTQLQKSIGATERMIEILAEEEEDTVTGKQIENAHLPIQLDRVSFGYKPDQLILKEVSAVIEAGKVTAIVGPSGGGKTTLFKLLERFYSPTAGTIRLGDEPVDTYSLESWREHIGYVSQESPLMSGTIRENICYGLERDVTDAEIEKAAEMAYALNFIKELPNQFDTEVGERGIMLSGGQRQRIAIARALLRNPSILMLDQATSSLDSQSEKSVQQALEVLMEGRTTIVIAHRLSTVVDADQLLFVEKGEITGRGTHHELMASHGLYRDFAEQQLKMNADLENKAG
notes: BmrA, Bacillus subtilis, E504Q mutant, cut by trypsin between Lys11 and Leu12; The His6 tag is lost together with residues 1-11; also called untagged BmrA; untagged, cleaved, monomer
For the molecule B1, the binding result in series [1] was “binds”.

B2: BmrA (Bacillus multidrug resistance ATP), 6-histidine N-terminal tag (natural protein, Bacillus subtilis, UniProt O06967 1-589, looked up)
chain: T1 sequence (looked up) with Q504E
notes: also called multidrug ABC transporter BmrA; source: E. coli C41(DE3) membranes, solubilised and purified in detergent (Q-Sepharose and Ni column in FC12; or Ni-NTA and SEC in DDM, UDM, UTM, LMNG, LDAO or FC12); not shown: His6, N-terminal, kept
Turning to B2, in series [2], the “stoichiometry N” value is 2.

B3: Outer membrane protein F (OmpF) (natural protein, E. coli (endogenous in C41(DE3)), UniProt P02931 23-362, looked up)
chain: AEIYNKDGNKVDLYGKAVGLHYFSKGNGENSYGGNGDMTYARLGFKGETQINSDLTGYGQWEYNFQGNNSEGADAQTGNKTRLAFAGLKYADVGSFDYGRNYGVVYDALGYTDMLPEFGGDTAYSDDFFVGRVGGVATYRNSNFFGLVDGLNFAVQYLGKNERDTARRSNGDGVGGSISYEYEGFGIVGAYGAADRTNLQEAQPLGNGKKAEQWATGLKYDANNIYLAANYGETRNATPITNKFTNTSGFANKTQDVLLVAQYQFDFGLRPSIAYTKSKAKDVEGIGDVDLVNYFEVGATYYFNKNMSTYVDYIINQIDSDNKLGVGSDDTVAVGIVYQF
notes: Outer membrane protein F of E. coli, identified by mass spectrometry as P02931; structure deposited as PDB 4JFB, solved with a trimer of PDB 2ZFG as search model; The expression strain is C41(DE3), whose OmpF may differ from that entry; also called outer membrane porin OmpF; source: endogenous, E. coli C41(DE3); co-extracted and co-purified with BmrA in FC12, crystallised from that sample
Take B3: in series [3], the “stoichiometry N” value was 3.
